What was measured:
[1] = molecular target: T1, O2-bN; experiment: two-hybrid library CCNG1;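 further: natural log of median RNA to DNA barcode read ratio; higher means stronger binding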
T1 chain: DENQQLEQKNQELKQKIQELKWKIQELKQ

[2] = molecular target: T2, O12-bN; experiment: two-hybrid library CCNG1;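 further: natural log of median RNA to DNA barcode read ratio; higher means stronger binding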
T2 chain: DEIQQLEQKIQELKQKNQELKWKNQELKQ

[3] = molecular target: T3, O15-bN; experiment: two-hybrid library CCNG1;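 further: natural log of median RNA to DNA barcode read ratio; higher means stronger binding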
T3 chain: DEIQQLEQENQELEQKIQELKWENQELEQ

[4] = molecular target: T4, O11-bN; experiment: two-hybrid library CCNG1;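 further: natural log of median RNA to DNA barcode read ratio; higher means stronger binding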
T4 chain: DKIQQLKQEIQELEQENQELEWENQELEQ

[5] = molecular target: T5, O7-bN; experiment: two-hybrid library CCNG1
T5 chain: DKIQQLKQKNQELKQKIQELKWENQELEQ

[6] = molecular target: T6, O3-bN; experiment: two-hybrid library CCNG1
T6 chain: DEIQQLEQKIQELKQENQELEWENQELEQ

[7] = molecular target: T7, O4-bN; experiment: two-hybrid library CCNG1
T7 chain: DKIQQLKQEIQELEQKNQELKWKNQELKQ

[8] = molecular target: T8, O6-bN; experiment: two-hybrid library CCNG1
T8 chain: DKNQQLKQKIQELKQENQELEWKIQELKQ

[9] = molecular target: T9, O8-bN; experiment: two-hybrid library CCNG1
T9 chain: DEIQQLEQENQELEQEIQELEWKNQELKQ

[10] = molecular target: T10, O13-bN; experiment: two-hybrid library CCNG1
T10 chain: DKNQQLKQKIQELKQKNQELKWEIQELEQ

[11] = molecular target: T11, O5-bN; experiment: two-hybrid library CCNG1
T11 chain: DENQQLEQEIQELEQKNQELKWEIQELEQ

[12] = molecular target: T12, O16-bN; experiment: two-hybrid library CCNG1
T12 chain: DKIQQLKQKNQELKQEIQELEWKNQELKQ

[13] = molecular target: T13, O14-bN; experiment: two-hybrid library CCNG1
T13 chain: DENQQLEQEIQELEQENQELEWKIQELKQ

[14] = molecular target: T14, O9-bN; experiment: two-hybrid library CCNG1
T14 chain: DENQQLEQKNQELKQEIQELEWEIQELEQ

[15] = molecular target: T15, P4mS; experiment: two-hybrid library CC1; settings: mean of both orientations
T15 chain: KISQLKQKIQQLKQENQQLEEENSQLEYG

[16] = molecular target: T16, P7; experiment: two-hybrid library CC1; settings: mean of both orientations
T16 chain: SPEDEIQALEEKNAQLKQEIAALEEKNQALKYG

[17] = molecular target: T17, P5; experiment: two-hybrid library CC1; settings: mean of both orientations
T17 chain: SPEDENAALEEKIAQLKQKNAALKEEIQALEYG

[18] = molecular target: T18, P8mS; experiment: two-hybrid library CC1; settings: mean of both orientations
T18 chain: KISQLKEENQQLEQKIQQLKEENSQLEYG

[19] = molecular target: T19, P3mS; experiment: two-hybrid library CC1; settings: mean of both orientations
T19 chain: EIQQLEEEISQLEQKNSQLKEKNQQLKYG

[20] = molecular target: T20, P5SC2; experiment: two-hybrid library CC1; settings: mean of both orientations
T20 chain: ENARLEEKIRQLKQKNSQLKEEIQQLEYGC

[21] = molecular target: T21, P9; experiment: two-hybrid library CC1; settings: mean of both orientations
T21 chain: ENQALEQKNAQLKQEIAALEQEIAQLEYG

[22] = molecular target: T22, P8; experiment: two-hybrid library CC1; settings: mean of both orientations
T22 chain: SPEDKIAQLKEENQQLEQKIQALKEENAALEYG

[23] = molecular target: T23, P5mS; experiment: two-hybrid library CC1; settings: mean of both orientations
T23 chain: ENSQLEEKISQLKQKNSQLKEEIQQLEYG

[24] = molecular target: T24, P6SC1; experiment: two-hybrid library CC1; settings: mean of both orientations
T24 chain: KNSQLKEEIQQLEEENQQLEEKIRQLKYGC

[25] = molecular target: T25, P6mS; experiment: two-hybrid library CC1; settings: mean of both orientations
T25 chain: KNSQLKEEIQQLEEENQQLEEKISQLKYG

[26] = molecular target: T26, P6SC2; experiment: two-hybrid library CC1; settings: mean of both orientations
T26 chain: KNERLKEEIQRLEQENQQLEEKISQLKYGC

[27] = molecular target: T27, P7mS; experiment: two-hybrid library CC1; settings: mean of both orientations
T27 chain: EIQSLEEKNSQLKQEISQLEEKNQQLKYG

[28] = molecular target: T28, P5SC1; experiment: two-hybrid library CC1; settings: mean of both orientations
T28 chain: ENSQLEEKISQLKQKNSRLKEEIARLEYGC

[29] = molecular target: T29, P6; experiment: two-hybrid library CC1; settings: mean of both orientations
T29 chain: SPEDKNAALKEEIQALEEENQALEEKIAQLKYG

[30] = molecular target: T30, P4; experiment: two-hybrid library CC1; settings: mean of both orientations
T30 chain: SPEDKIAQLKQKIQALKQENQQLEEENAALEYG

[31] = molecular target: T31, P3; experiment: two-hybrid library CC1
T31 chain: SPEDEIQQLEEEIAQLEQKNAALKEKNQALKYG

B1: O11-bN (peptide)
chain: DKIQQLKQEIQELEQENQELEWENQELEQ
interaction score [1]: -0.23 | interaction score [2]: 0.971 | interaction score [3]: -0.577 | interaction score [4]: -0.191 | interaction score [5]: -1.3 | interaction score [6]: -0.437 | interaction score [7]: 0.401 | interaction score [8]: -0.927 | interaction score [9]: -1.26 | interaction score [10]: -0.808 | interaction score [11]: -1.06 | interaction score [12]: -1.91 | interaction score [13]: -0.639 | interaction score [14]: -0.813

B2: P3 (peptide)
chain: T31 chain
interaction score [15]: 0.336 | interaction score [16]: -2.61 | interaction score [17]: -2.66 | interaction score [18]: -2.7 | interaction score [19]: -2.89 | interaction score [20]: -2.4 | interaction score [21]: -2.09 | interaction score [22]: -2.6 | interaction score [23]: -2.66 | interaction score [24]: -2.57 | interaction score [25]: -2.79 | interaction score [26]: -2.04 | interaction score [27]: -2.58 | interaction score [28]: -2.58 | interaction score [29]: -2.59 | interaction score [30]: 0.154 | interaction score [31]: -2.65

B3: O12-bN (peptide)
chain: DEIQQLEQKIQELKQKNQELKWKNQELKQ
interaction score [1]: -0.846 | interaction score [2]: -0.0253 | interaction score [3]: -0.511 | interaction score [5]: -0.201 | interaction score [6]: 0.565 | interaction score [7]: -0.33 | interaction score [8]: 0.155 | interaction score [9]: 0.0745 | interaction score [10]: -0.316 | interaction score [11]: -2.82 | interaction score [12]: -0.487 | interaction score [13]: -0.704 | interaction score [14]: -0.349

Reference: PMC10397247
